L-cysteine desulfurase activity of IscS (methylene blue assay) after addition of TusA, Kd and stoichiometry N data for five substances are collected here from publication PMC11302665.

In experiment [1] the target is L-cysteine desulfurase IscS (E. coli) (UniProt P0A6B7).
For experiment [2] the target is unchanged. In words: native MS; ~8 µM IscS (~4 µM dimeric IscS) titrated with increasing TusA in 250 mM ammonium acetate, pH 8.0; fractional intensities fitted to a sequential binding model (Dynafit).
Experiment [3] concerns the target R220/223/225E triple variant of IscS (E. coli) (UniProt P0A6B7). In words: native MS; ESI-MS under non-denaturing conditions of IscS alone, 250 mM ammonium acetate, pH 8.0.
The next experiment has as its target IscS (Escherichia coli) (UniProt P0A6B7). Nature of the experiment: native mass spectrometry. The note with it: cited from earlier work.

As a reminder, the Kd is a measure of binding affinity in units of concentration. For “TusA (from UniProt P0A890 1-81) (natural protein)”, in experiment [1], the L-cysteine desulfurase activity of IscS (methylene blue assay) after addition of TusA was determined as 3 fold. The Kd in experiment [2] worked out at 8 µM.

The stoichiometry N is a count of units in the complex or per binding partner. “R220/223/225E triple variant of IscS (from UniProt P0A6B7 1-404) (enzyme)” returned a stoichiometry N in experiment [3] of 2.

The substance “TusA C56A variant (from UniProt P0A890 1-81) (natural protein)” yielded a Kd in experiment [2] of 8 µM.

Regarding IscU (from UniProt P0ACD4), in the experiment with IscS (Escherichia coli), the Kd is 3 µM.

“TusA C19S variant (from UniProt P0A890 1-81) (natural protein)” came in with a Kd in experiment [2] of 8 µM.
